Source: paper PMC5999986

Target: DosR (DosRwt) (Mycobacterium tuberculosis, UniProt P9WMF9 1-217)
Test: EMSA; 4, 8, 16 uM protein; 20 mM MgCl2; […]; ITC: 20 mM Tris pH 8.0, 200 mM NaCl, 25 C, […]
Details: protein: recombinant; tags: His6 (N-terminal from pET28a NdeI/HindIII; C-terminal His6 encoded by primer PTD2 in pT7-dosR); chain copies: 2; label: none (ethidium bromide stain); blunt

B1: 20-bp DosR regulon consensus DNA (EM1/EM2) (dsDNA)
DNA 1: TTGGGGACTAAAGTCCCTAA
DNA 2: TTAGGGACTTTAGTCCCCAA
binding result: binds
